From publication PMC9367475

What was measured:
[1] = molecular target: DC-SIGN on THP-1 cells induced with PMA and IL-4 (DC-THP-1) (human (endogenous in THP-1)) (UniProt Q9NNX6)
[2] = molecular target: human DC-SIGN expressed on HEK 293T cells (DC-HEK) (human) (UniProt Q9NNX6)

## recombinant SARS-CoV-2 spike protein (from UniProt P0DTC2 14-1273) (natural protein)
[1]
  IL-1β mRNA (RT-qPCR, 6 h and 12 h: ~ -2.5 to ~ -4 log10) in DC-THP-1 cells challenged with Spike protein pre-incubated with rfhSP-D 20 µg/ml, against Spike protein without rfhSP-D: -4
  IL-6 mRNA (RT-qPCR, 12 h) in DC-THP-1 cells challenged with Spike protein pre-incubated with rfhSP-D 20 µg/ml, against Spike protein without rfhSP-D: -5
  IL-8 mRNA (RT-qPCR, 6 h and 12 h: ~ -2.3 to ~ -4.8 log10) in DC-THP-1 cells challenged with Spike protein pre-incubated with rfhSP-D 20 µg/ml, against Spike protein without rfhSP-D: -4.8
  MHC class II mRNA (RT-qPCR, 6 h and 12 h: - 2 to - 2.7 log10) in DC-THP-1 cells challenged with Spike protein pre-incubated with rfhSP-D 20 µg/ml, against Spike protein without rfhSP-D: -2.7
  NF-κB mRNA (RT-qPCR, 6 h and 12 h: ~ -1 to ~ -4 log10) in DC-THP-1 cells challenged with Spike protein pre-incubated with rfhSP-D 20 µg/ml, against Spike protein without rfhSP-D: -4
  TNF-α mRNA (RT-qPCR, 6 h and 12 h: ~ -3.1 to ~ -6.8 log10) in DC-THP-1 cells challenged with Spike protein pre-incubated with rfhSP-D 20 µg/ml, against Spike protein without rfhSP-D: -6.8
[2]
  IFN-α mRNA (RT-qPCR, 6 h) in DC-HEK cells challenged with Spike protein pre-incubated with rfhSP-D 20 µg/ml, against Spike protein without rfhSP-D: -2.1
  NF-κB mRNA (RT-qPCR, 6 h) in DC-HEK cells challenged with Spike protein pre-incubated with rfhSP-D 20 µg/ml, against Spike protein without rfhSP-D: -1.2
  RANTES mRNA (RT-qPCR, 6 h) in DC-HEK cells challenged with Spike protein pre-incubated with rfhSP-D 20 µg/ml, against Spike protein without rfhSP-D: -1.3
  TNF-α mRNA (RT-qPCR, 6 h) in DC-HEK cells challenged with Spike protein pre-incubated with rfhSP-D 20 µg/ml, against Spike protein without rfhSP-D: -3.3
